{"source": "patent US12070505B2", "about": "“Targeted peptide-drug conjugates” (priority 2021, dated 2024)", "key": {"[1]": {"test": "Cytotoxicity, MTS assay, normal heart muscle cells (Example 1)", "settings": "rat, H9C2 heart/myocardium cells", "description": "(§1) In Vitro Cytotoxicity Assay of Peptide-Drug Conjugates. The cytotoxicity of the compounds was determined by using human leukemia cell line (CCRF-CEM), human ovarian adenocarcinoma cells (SKOV-3) cells, kidney cell line (LLC-PK1), gastric adenocarcinoma cells (AGS), and heart/myocardium cells (H9C2) to evaluate the toxicity of the generated peptides according to a previously reported procedure (Rahman, A.; et al. Proc. Am. Assoc. Cancer Res. 26:2295-2299, 1985, which is incorporated herein by reference). In brief, CCRF-CEM cells were seeded at 50,000 cells in 0.1 mL per well in 98-well plates. In the case of other cell lines, the cells were seeded at 5,000 cells (0.1 mL per well in 96-well plates). The cells were seeded in medium (RPMI-1640 containing FBS (10%)), 24 h prior to the experiment. The compounds at different concentrations (10-50 μM) were added to each well in triplicate and incubated for 24 and 72 h at 37° C. in a humidified atmosphere of 5% CO2. Dox (5 μM) was used as a positive control, while water and cell culture medium were used as negative controls. The compounds were dissolved in water; water was used as a negative control to normalize the data. After the incubation period, MTS reagent (20 μL) was added to each well. The incubation was continued for 2 h. Cell viability was then determined by determination of the fluorescence intensity at 490 nm using a SpectraMax M2 microplate spectrophotometer."}, "H9C2 cells": {"system": "H9C2 cells", "test": "Cytotoxicity, MTS assay, normal heart muscle cells (Example 1)", "settings": "H9C2; 5-10 and 25 μM; any incubation time", "description": "as §1"}}}
{"compound": "COc1cccc2c1C(=O)c1c(O)c3c(c(O)c1C2=O)C[C@@](O)(C(=O)CO)C[C@@H]3O[C@H]1C[C@H](NC(=N)CCCSSC[C@H](NC(C)=O)C(=O)N[C@@H](Cc2c[nH]c3ccccc23)C(=O)N[C@@H](Cc2c[nH]c3ccccc23)C(=O)N[C@@H](Cc2c[nH]c3ccccc23)C(=O)N[C@@H](Cc2c[nH]c3ccccc23)C(=O)N[C@@H](Cc2c[nH]c3ccccc23)C(=O)N[C@@H](Cc2c[nH]c3ccccc23)C(=O)N[C@@H](Cc2c[nH]c3ccccc23)C(=O)NCCCC[C@@H]2NC(=O)[C@H](CCCNC(=N)N)NC(=O)[C@H](CCCNC(=N)N)NC(=O)[C@H](CCCNC(=N)N)NC(=O)[C@H](CCCNC(=N)N)NC(=O)[C@H](CCCNC(=N)N)NC2=O)[C@H](O)[C@H](C)O1", "note": "[[R5K]W7C-S-S-Dox]", "values": [{"measurement": "viability at 24 h, 5 µM", "setting": "[1]", "value": "98 ± 1", "unit": "%"}, {"measurement": "viability at 24 h, 10 µM", "setting": "[1]", "value": "91 ± 1", "unit": "%"}, {"measurement": "viability at 24 h, 25 µM", "setting": "[1]", "value": "92 ± 1", "unit": "%"}, {"measurement": "viability at 72 h, 5 µM", "setting": "[1]", "value": "106 ± 1", "unit": "%"}, {"measurement": "viability at 72 h, 10 µM", "setting": "[1]", "value": "117 ± 1", "unit": "%"}, {"measurement": "viability at 72 h, 25 µM", "setting": "[1]", "value": "105 ± 2", "unit": "%"}, {"measurement": "viability at 96 h, 5 µM", "setting": "[1]", "value": "104 ± 1", "unit": "%"}, {"measurement": "viability at 96 h, 10 µM", "setting": "[1]", "value": "113 ± 3", "unit": "%"}, {"measurement": "viability at 96 h, 25 µM", "setting": "[1]", "value": "108 ± 1", "unit": "%"}, {"measurement": "cytotoxicity", "setting": "H9C2 cells", "value": "did not show any cytotoxicity"}]}
